Data reported in the Immune Epitope Database (IEDB).

Experiments:
Test in all cases: IEDB peptide-MHC binding, purified MHC/direct/fluorescence; filed as Kd, often an IC50 or EC50 that approximates it; ≥ and ≤ were set here for values at or beyond the usual limits of such assays
Settings in all cases: source organism: Vibrio cholerae V52
HLA-A*02:03 = target: HLA-A*02:03
HLA-A*03:01 = target: HLA-A*03:01
HLA-A*23:01 = target: HLA-A*23:01
HLA-A*29:02 = target: HLA-A*29:02
HLA-B*15:01 = target: HLA-B*15:01
HLA-B*15:17 = target: HLA-B*15:17
HLA-B*18:01 = target: HLA-B*18:01
HLA-B*57:01 = target: HLA-B*57:01

Measured: Kd

MGMEQTMSV
≥ 20 µM: HLA-A*02:03 | HLA-A*03:01 | HLA-A*23:01 | HLA-A*29:02 | HLA-B*15:01 | HLA-B*15:17 | HLA-B*18:01 | HLA-B*57:01
